This note sets out measurements from publication PMC7244493, “Osteogenesis imperfecta mutations in plastin 3 lead to impaired calcium regulation of actin bundling” (Bone Research, 2020).

The labels stand for the following.
B1: plastin 3 (PLS3), wild type (natural protein)
chain: MDEMATTQISKDELDELKEAFAKVDLNSNGFICDYELHELFKEANMPLPGYKVREIIQKLMLDGDRNKDGKISFDEFVYIFQEVKSSDIAKTFRKAINRKEGICALGGTSELSSEGTQHSYSEEEKYAFVNWINKALENDPDCRHVIPMNPNTDDLFKAVGDGIVLCKMINLSVPDTIDERAINKKKLTPFIIQENLNLALNSASAIGCHVVNIGAEDLRAGKPHLVLGLLWQIIKIGLFADIELSRNEALAALLRDGETLEELMKLSPEELLLRWANFHLENSGWQKINNFSADIKDSKAYFHLLNQIAPKGQKEGEPRIDINMSGFNETDDLKRAESMLQQADKLGCRQFVTPADVVSGNPKLNLAFVANLFNKYPALTKPENQDIDWTLLEGETREERTFRNWMNSLGVNPHVNHLYADLQDALVILQLYERIKVPVDWSKVNKPPYPKLGANMKKLENCNYAVELGKHPAKFSLVGIGGQDLNDGNQTLTLALVWQLMRRYTLNVLEDLGDGQKANDDIIVNWVNRTLSEAGKSTSIQSFKDKTISSSLAVVDLIDAIQPGCINYDLVKSGNLTEDDKHNNAKYAVSMARRIGARVYALPEDLVEVKPKMVMTVFACLMGRGMKRV
notes: plastin 3 (PLS3, T-plastin), human; recombinant wild type, parent of the OI mutants; Modified pColdI vector with a TEV protease site after the 6xHis tag; also called T-plastin; WT PLS3; source: E. coli BL21-CodonPlus(DE3), purified (TALON cobalt resin)
B2: plastin 3 (PLS3) L478P (natural protein)
chain: B1 chain with L478P
notes: plastin 3 (PLS3), human, osteogenesis imperfecta-linked missense mutation L478P in CH3 of ABD2; Patient mutation; also called bundling-deficient mutant; source: E. coli BL21-CodonPlus(DE3), purified (TALON cobalt resin)
B3: plastin 3 (PLS3) N446S (natural protein)
chain: B1 chain with N446S
notes: plastin 3 (PLS3), human, osteogenesis imperfecta-linked missense mutation N446S in a proline-rich loop of CH3; Patient mutation; also called Ca2+-hypersensitive mutant; source: E. coli BL21-CodonPlus(DE3), purified (TALON cobalt resin)
B4: plastin 3 (PLS3) A368D (natural protein)
chain: B1 chain with A368D
notes: plastin 3 (PLS3), human, osteogenesis imperfecta-linked missense mutation A368D in CH2 of ABD1; Patient mutation; also called Ca2+-insensitive mutant; Ca2+-hyposensitive mutant; source: E. coli BL21-CodonPlus(DE3), purified (TALON cobalt resin)
B5: plastin 3 (PLS3) A253_L254insN (natural protein)
chain: MDEMATTQISKDELDELKEAFAKVDLNSNGFICDYELHELFKEANMPLPGYKVREIIQKLMLDGDRNKDGKISFDEFVYIFQEVKSSDIAKTFRKAINRKEGICALGGTSELSSEGTQHSYSEEEKYAFVNWINKALENDPDCRHVIPMNPNTDDLFKAVGDGIVLCKMINLSVPDTIDERAINKKKLTPFIIQENLNLALNSASAIGCHVVNIGAEDLRAGKPHLVLGLLWQIIKIGLFADIELSRNEALAANLLRDGETLEELMKLSPEELLLRWANFHLENSGWQKINNFSADIKDSKAYFHLLNQIAPKGQKEGEPRIDINMSGFNETDDLKRAESMLQQADKLGCRQFVTPADVVSGNPKLNLAFVANLFNKYPALTKPENQDIDWTLLEGETREERTFRNWMNSLGVNPHVNHLYADLQDALVILQLYERIKVPVDWSKVNKPPYPKLGANMKKLENCNYAVELGKHPAKFSLVGIGGQDLNDGNQTLTLALVWQLMRRYTLNVLEDLGDGQKANDDIIVNWVNRTLSEAGKSTSIQSFKDKTISSSLAVVDLIDAIQPGCINYDLVKSGNLTEDDKHNNAKYAVSMARRIGARVYALPEDLVEVKPKMVMTVFACLMGRGMKRV
notes: plastin 3 (PLS3), human, osteogenesis imperfecta-linked single-residue insertion A253_L254insN in the CH1-CH2 connecting loop of ABD1; Patient mutation; also called Ca2+-hypersensitive mutant; source: E. coli BL21-CodonPlus(DE3), purified (TALON cobalt resin)
B6: plastin 3 (PLS3) E249_A250insIMGHSHSGSCLL (natural protein)
chain: MDEMATTQISKDELDELKEAFAKVDLNSNGFICDYELHELFKEANMPLPGYKVREIIQKLMLDGDRNKDGKISFDEFVYIFQEVKSSDIAKTFRKAINRKEGICALGGTSELSSEGTQHSYSEEEKYAFVNWINKALENDPDCRHVIPMNPNTDDLFKAVGDGIVLCKMINLSVPDTIDERAINKKKLTPFIIQENLNLALNSASAIGCHVVNIGAEDLRAGKPHLVLGLLWQIIKIGLFADIELSRNEIMGHSHSGSCLLALAALLRDGETLEELMKLSPEELLLRWANFHLENSGWQKINNFSADIKDSKAYFHLLNQIAPKGQKEGEPRIDINMSGFNETDDLKRAESMLQQADKLGCRQFVTPADVVSGNPKLNLAFVANLFNKYPALTKPENQDIDWTLLEGETREERTFRNWMNSLGVNPHVNHLYADLQDALVILQLYERIKVPVDWSKVNKPPYPKLGANMKKLENCNYAVELGKHPAKFSLVGIGGQDLNDGNQTLTLALVWQLMRRYTLNVLEDLGDGQKANDDIIVNWVNRTLSEAGKSTSIQSFKDKTISSSLAVVDLIDAIQPGCINYDLVKSGNLTEDDKHNNAKYAVSMARRIGARVYALPEDLVEVKPKMVMTVFACLMGRGMKRV
notes: Patient mutation; also called E249_A250insI-L; Ca2+-insensitive mutant; source: E. coli BL21-CodonPlus(DE3), purified (TALON cobalt resin)

Changes are numbered by the printed parent chain. Names may count otherwise.

One assay deals with T1, F-actin (chicken skeletal muscle actin, polymerized) (chicken, UniProt P68139 1-377). The assay can be described thus: co-sedimentation; high-speed co-sedimentation, 300 000 g, 25 °C, 30 min; plastin 5 µmol·L^-1, F-actin varied 1-50 µmol·L^-1; actin polymerized in 2 mmol·L^-1 MgCl2, 30 mmol·L^-1 KCl, 10 mmol·L^-1 HEPES pH 7.0; incubated overnight at 4 °C then 1 h at 25 °C; SDS-PAGE densitometry, fit to a binding isotherm. The following applies: both partners purified.
In the case of B1, binding was put at a Kd of 7.41 µM.

For the molecule B2, binding was put at a Kd of 2.16 µM.

B3 came in with a Kd of 4.79 µM.

B4 came in with a dissociation constant Kd of 4.22 µM.

B5 gave a Kd of 3.77 µM.

In the case of B6, binding was put at a Kd of 2.56 µM. The Kd values of the last two molecules are within 1.5-fold of each other.

Another assay deals with T1, F-actin (chicken skeletal muscle actin, …). Description: cell-based or functional assay.
Conditions: not given
Take B1: the “F-actin bundling, low-speed (17 000 g) co-sedimentation, [PLS3]50%, Ca^2+” value (from here on “F-actin bundling, low-speed … [PLS3]50%, Ca^2+”) is 2.97 µmol/L and the “F-actin bundling, low-speed (17 000 g) co-sedimentation, [PLS3]50%, EGTA” value (“F-actin bundling, low-speed … [PLS3]50%, EGTA” for short) stood at 0.49 µmol/L.

Consider B3, for which the “F-actin bundling, low-speed … [PLS3]50%, Ca^2+” value was found to be 6.36 µmol/L and the “F-actin bundling, low-speed … [PLS3]50%, EGTA” value came to 0.58 µmol/L.

Take B4: the “F-actin bundling, low-speed … [PLS3]50%, Ca^2+” value was found to be 0.59 µmol/L and the “F-actin bundling, low-speed … [PLS3]50%, EGTA” value came to 0.47 µmol/L.

Take B5: the “F-actin bundling, low-speed … [PLS3]50%, Ca^2+” value amounted to 2.09 µmol/L and the “F-actin bundling, low-speed … [PLS3]50%, EGTA” value is 0.53 µmol/L.

Turning to B6, the “F-actin bundling, low-speed … [PLS3]50%, Ca^2+” value was found to be 0.03 µmol/L and the “F-actin bundling, low-speed … [PLS3]50%, EGTA” value is 0.1 µmol/L.

As usually defined, the Kd is the free concentration of one partner at which half of the binding sites on the other are occupied at equilibrium, for simple one-to-one binding. A lower Kd goes with higher affinity.
